Data on eleven variants can be found in IntAct's records for PubMed 35512704.

B1: Mothers against decapentaplegic homolog 4 (Homo sapiens), Q13485 (parent)
chain: MDNMSITNTPTSNDACLSIVHSLMCHRQGGESETFAKRAIESLVKKLKEKKDELDSLITAITTNGAHPSKCVTIQRTLDGRLQVAGRKGFPHVIYARLWRWPDLHKNELKHVKYCQYAFDLKCDSVCVNPYHYERVVSPGIDLSGLTLQSNAPSSMMVKDEYVHDFEGQPSLSTEGHSIQTIQHPPSNRASTETYSTPALLAPSESNATSTANFPNIPVASTSQPASILGGSHSEGLLQIASGPQPGQQQNGFTGQPATYHHNSTTTWTGSRTAPYTPNLPHHQNGHLQHHPPMPPHPGHYWPVHNELAFQPPISNHPAPEYWCSIAYFEMDVQVGETFKVPSSCPIVTVDGYVDPSGGDRFCLGQLSNVHRTEAIERARLHIGKGVQLECKGEGDVWVRCLSDHAVFVQSYYLDREAGRAPGDAVHKIYPSAYIKVFDLRQCHRQMQQQAATAQAAAAAQAAAVAGNIPGPGSVGGIAPAISLSAAAGIGVDDLRRLCILRMSFVKGWGPDYPRQSIKETPCWIEIHLHRALQLLDEVLHTMPIADPQPLD
partner: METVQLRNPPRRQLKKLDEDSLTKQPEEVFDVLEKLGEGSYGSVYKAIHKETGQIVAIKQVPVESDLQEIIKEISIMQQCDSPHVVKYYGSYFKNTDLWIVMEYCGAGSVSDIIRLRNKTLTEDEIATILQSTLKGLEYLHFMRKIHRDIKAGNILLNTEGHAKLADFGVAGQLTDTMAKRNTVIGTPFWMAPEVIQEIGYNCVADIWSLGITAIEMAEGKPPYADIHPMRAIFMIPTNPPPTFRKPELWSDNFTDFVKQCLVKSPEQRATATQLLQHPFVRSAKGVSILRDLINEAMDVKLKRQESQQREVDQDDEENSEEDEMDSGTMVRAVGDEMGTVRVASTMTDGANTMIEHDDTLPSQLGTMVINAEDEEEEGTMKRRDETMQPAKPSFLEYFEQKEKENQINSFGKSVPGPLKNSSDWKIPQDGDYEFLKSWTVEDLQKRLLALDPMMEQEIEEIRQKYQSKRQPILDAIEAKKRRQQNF
B2: Mothers against decapentaplegic homolog 4 (Homo sapiens), Q13485 (parent)
chain: B1 chain
partner: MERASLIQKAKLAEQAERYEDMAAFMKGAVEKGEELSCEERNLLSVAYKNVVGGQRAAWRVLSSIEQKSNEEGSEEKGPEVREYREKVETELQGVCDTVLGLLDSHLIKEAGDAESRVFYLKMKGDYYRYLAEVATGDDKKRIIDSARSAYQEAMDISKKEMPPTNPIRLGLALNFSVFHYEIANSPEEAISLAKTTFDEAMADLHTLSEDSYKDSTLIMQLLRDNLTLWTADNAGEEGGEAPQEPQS
B3: Mothers against decapentaplegic homolog 4 (Homo sapiens), Q13485 (parent)
chain: B1 chain
partner: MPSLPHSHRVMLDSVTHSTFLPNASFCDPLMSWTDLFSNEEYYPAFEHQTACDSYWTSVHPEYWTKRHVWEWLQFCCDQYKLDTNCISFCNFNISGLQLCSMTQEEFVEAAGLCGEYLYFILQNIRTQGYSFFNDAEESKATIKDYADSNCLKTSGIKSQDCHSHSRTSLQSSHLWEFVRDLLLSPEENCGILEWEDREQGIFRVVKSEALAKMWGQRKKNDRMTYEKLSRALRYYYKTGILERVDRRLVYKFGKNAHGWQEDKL
B4: Mothers against decapentaplegic homolog 4 (Homo sapiens), Q13485 (parent)
chain: B1 chain
partner: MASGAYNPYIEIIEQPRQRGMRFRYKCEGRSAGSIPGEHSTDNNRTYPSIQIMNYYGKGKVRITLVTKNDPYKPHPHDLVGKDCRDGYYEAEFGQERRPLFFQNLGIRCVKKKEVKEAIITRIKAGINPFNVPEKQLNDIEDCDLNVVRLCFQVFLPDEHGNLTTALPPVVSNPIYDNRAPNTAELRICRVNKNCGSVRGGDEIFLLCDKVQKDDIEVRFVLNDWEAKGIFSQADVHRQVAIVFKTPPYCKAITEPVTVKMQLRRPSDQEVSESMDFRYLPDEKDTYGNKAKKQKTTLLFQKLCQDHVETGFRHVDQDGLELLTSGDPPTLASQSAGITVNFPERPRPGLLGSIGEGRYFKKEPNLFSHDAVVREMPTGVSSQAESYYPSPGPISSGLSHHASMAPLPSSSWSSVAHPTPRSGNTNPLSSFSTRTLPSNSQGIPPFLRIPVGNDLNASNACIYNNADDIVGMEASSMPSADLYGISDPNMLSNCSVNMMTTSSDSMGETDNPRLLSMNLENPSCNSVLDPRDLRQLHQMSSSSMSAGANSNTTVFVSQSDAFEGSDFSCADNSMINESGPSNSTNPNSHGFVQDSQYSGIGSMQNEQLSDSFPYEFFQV

In the first experiment the parent is B1. Particulars: with stk4_human STK4, Q13043.
Consider G386D, for which the “effect of a mutation on the interaction” value is “with no effect”.

A further experiment covers variants of B1. The following applies: with stk4_human STK4, Q13043. This is another data set of the same source.
For R361H, the “effect of a mutation on the interaction” value is given as “with no effect”.

The next experiment covers variants of B1. The following applies: with stk4_human STK4, Q13043. The source holds these as a separate data set.
R361C: the “effect of a mutation on the interaction” value is “with no effect”.

The variants in another experiment derive from B1. Particulars: with stk4_human STK4, Q13043. This is another data set of the same source.
D351H: the “effect of a mutation on the interaction” value is given as “with no effect”.

The variants in another experiment derive from B2. Particulars: with 1433s_human SFN.
On to G386D, for which the “effect of a mutation on the interaction” value is reported as “with no effect”.

In another experiment the parent is B2. The following applies: with 1433s_human SFN. The source holds these as a separate data set.
As to D351H, the “effect of a mutation on the interaction” value is “with no effect”.

In the next experiment the parent is B2. The following applies: with 1433s_human SFN. The source holds these as a separate data set.
Turning to R361H, the “effect of a mutation on the interaction” value is recorded as “with no effect”.

The variants in another experiment derive from B3. The following applies: with elf5_human ELF5, Q9UKW6.
Consider R361H, for which the “effect of a mutation on the interaction” value is “with no effect”.

Variants of B3 are the subject of a further experiment. The following applies: with elf5_human ELF5, Q9UKW6. This is another data set of the same source.
As to R361C, the “effect of a mutation on the interaction” value is reported as “with no effect”.

The next experiment covers variants of B3. The following applies: with elf5_human ELF5, Q9UKW6. This is another data set of the same source.
As to G386D, the “effect of a mutation on the interaction” value is “with no effect”.

A further experiment covers variants of B4. The following applies: with rel_human REL.
G386D: the “effect of a mutation on the interaction” value was “with no effect”.
